This is an account of results in patent publication US20250066478A1 (IBIO, published 2025).

This experiment addresses T1, MUC16 membrane-proximal region (UniProt Q8WXI7 13810-14451).
T1 construct: domain: membrane-proximal region
T1 sequence: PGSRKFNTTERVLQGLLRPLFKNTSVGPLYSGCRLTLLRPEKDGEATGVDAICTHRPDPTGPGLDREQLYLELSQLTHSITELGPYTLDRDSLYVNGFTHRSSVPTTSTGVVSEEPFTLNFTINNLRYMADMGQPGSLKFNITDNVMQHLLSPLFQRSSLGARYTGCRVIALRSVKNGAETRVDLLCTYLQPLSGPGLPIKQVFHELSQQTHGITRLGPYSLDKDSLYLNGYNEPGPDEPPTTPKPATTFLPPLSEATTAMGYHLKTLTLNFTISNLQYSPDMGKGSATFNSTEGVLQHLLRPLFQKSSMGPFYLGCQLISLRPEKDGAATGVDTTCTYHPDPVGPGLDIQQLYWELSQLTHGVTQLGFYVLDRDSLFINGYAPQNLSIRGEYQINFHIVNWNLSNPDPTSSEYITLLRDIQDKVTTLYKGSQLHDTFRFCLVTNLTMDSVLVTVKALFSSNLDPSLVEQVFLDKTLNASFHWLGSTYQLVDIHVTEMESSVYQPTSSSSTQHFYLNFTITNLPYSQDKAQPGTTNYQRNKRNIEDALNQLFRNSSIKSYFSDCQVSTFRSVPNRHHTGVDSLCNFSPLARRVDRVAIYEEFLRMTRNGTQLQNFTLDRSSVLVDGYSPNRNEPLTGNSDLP
Briefly: FIG. 7A; method not named in the legend (Octet BLI or flow cytometry per the methods). A general note: BLI is a label-free optical method that tracks binding on a fibre tip over time.

B1: 21G6 long linker mask on VH domain (antibody)
VH: NFTLDRSSVLVDGYSPNRNEPLTGNSDLPGGGGSSGGPGPAGMKGLPGSQVQLQESGPGLVKPSQTLSLTCTVSGYSITSDYAWNWIRQPPGKGLEWIGYISYSGSTIYNPSLKSRISISVDTSKNQFSLKLNSVTAADTAVYYCATLGLDYWGQGTLVTVSS
VL: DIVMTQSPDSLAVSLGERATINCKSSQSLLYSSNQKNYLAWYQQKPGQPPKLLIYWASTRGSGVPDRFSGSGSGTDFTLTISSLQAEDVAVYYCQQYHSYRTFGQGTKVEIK
notes: the methods give the format as IgG or scFv
Turning to B1, the binding result is on record as “no binding”.
